Measured values from patent US20240076406A1, “SINGLE DOMAIN ANTIBODIES TARGETING CA-IX AS WELL AS COMPOSITIONS COMPRISING SAME” (National Research Council of Canada, priority 2021, published 2024).

Assays:
[1] = molecular target: hCA-IX expressed on cells (SKRC52, SKRC59, 67NR^hCA-IX) (human) (UniProt Q16790); test: Plate-based cell binding assay, one site specific binding fit; cell line not given
[2] = molecular target: hCA-IX expressed on cells (SKRC52, SKRC59, 67NR^hCA-IX) (human) (UniProt Q16790); test: plate-based cell binding assay, mean fluorescent intensity per cell area, SKRC52 (hCA-IX high) cells

Bmax (mean fluorescent intensity per cell area) [1]: 575 | Kd [1]: 1.29 nM | EC50 (read off the curve) [2]: 1 nM
Substance: cG250 full sized antibody (FSA)
